Here are results for one substance from paper PMC2120815.

In this test the target is cytoplasmic dynein intermediate chain (Xenopus laevis (endogenous in egg extract)). The test is described as follows: co-IP.

In the case of “cytoplasmic dynein heavy chain (natural protein)”, the interphase/metaphase ratio of the amount brought down came out at 1.08.
